For orientation: stoichiometry N means the number of molecules, sites or subunits per partner or assembly.

From PMC10286996 come the findings set out here.

“And” between values parts separate entries of the source, which are not always exact repeats. Equal entries are not always repeated.

The target of the assay is slipper limpet hemocyanin (Crepidula fornicata) (Crepidula fornicata). The assay can be described thus: cryo-EM structure; SLH (ion exchange flow-through) at 15 mg/ml, Chameleon grids, Glacios microscope, Relion 3.1; didecamer built with d5, tridecamer with c5 symmetry.

On to “slipper limpet hemocyanin (Crepidula fornicata) (natural protein)”, for which the stoichiometry N is 20 and 30.
